Experimental data as given in the supplement of paper PMC11316812.
± gives the standard deviation of the averaged measurements.

Experiments:
MCF7 = experiment: percentage of EdU-negative (G0-arrested) nuclei per well, 72 h; higher = more G0 arrest; conditions: reference: sequence is the full UniProt precursor, the tested protein was the secreted form or ectodomain
hTERT-HMEC = experiment: as above; conditions: reference: sequence is the full UniProt precursor, the tested protein was the secreted form or ectodomain
[1] = protein concentration 0.0225 µM
[2] = protein concentration 0.01175 µM
[3] = protein concentration 0.1175 µM
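Note: secreted proteins added to cultured cells, EdU pulse at the end, nuclei found by Hoechst imaging, EdU status from nuclear versus surrounding ring intensity ratio, PBS as neutral control.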

Row | Sequence | percentage of EdU-negative (MCF7; [1]) | percentage of EdU-negative (MCF7; protein concentration 0.225 µM) | percentage of EdU-negative (hTERT-HMEC; [1]) | percentage of EdU-negative (hTERT-HMEC; protein concentration 0.225 µM) | percentage of EdU-negative (MCF7; [2]) | percentage of EdU-negative (MCF7; [3]) | percentage of EdU-negative (hTERT-HMEC; [2]) | percentage of EdU-negative (hTERT-HMEC; [3])
1 | MEGAGPRGAGPARRRGAGGPPSPLLPSLLLLLLLWMLPDTVAPQELNPRGRNVCRAPGSQVPTCCAGWRQQGDECGIAVCEGNSTCSENEVCVRPGECRCRHGYFGANCDTKCPRQFWGPDCKELCSCHPHGQCEDVTGQCTCHARRWGARCEHACQCQHGTCHPRSGACRCEPGWWGAQCASACYCSATSRCDPQTGACLCHAGWWGRSCNNQCACNSSPCEQQSGRCQCRERTFGARCDRYCQCFRGRCHPVDGTCACEPGYRGKYCREPCPAGFYGLGCRRRCGQCKGQQPCTVAEGRCLTCEPGWNGTKCDQPCATGFYGEGCSHRCPPCRDGHACNHVTGKCTRCNAGWIGDRCETKCSNGTYGEDCAFVCADCGSGHCDFQSGRCLCSPGVHGPHCNVTCPPGLHGADCAQACSCHEDTCDPVTGACHLETNQRKGVMGAGALLVLLVCLLLSLLGCCCACRGKDPTRRPRPRRELSLGRKKAPHRLCGRFSRISMKLPRIPLRRQKLPKVVVAHHDLDNTLNCSFLEPPSGLEQPSPSWSSRASFSSFDTTDEGPVYCVPHEEAPAESRDPEVPTVPAEAPAPSPVPLTTPASAEEAIPLPASSDSERSASSVEGPGGALYARVARREARPARARGEIGGLSLSPSPERRKPPPPDPATKPKVSWIHGKHSAAAAGRAPSPPPPGSEAAPSPSKRKRTPSDKSAHTVEHGSPRTRDPTPRPPGLPEEATALAAPSPPRARARGRGPGLLEPTDAGGPPRSAPEAASMLAAELRGKTRSLGRAEVALGAQGPREKPAPPQKAKRSVPPASPARAPPATETPGPEKAATDLPAPETPRKKTPIQKPPRKKSREAAGELGRAGAPTL [Q96GP6] | 25.7 ± 1.2% | 36.9 ± 0.76% | 3.85 ± 0.62% | 18.5 ± 6.1% | – | – | – | –
2 | MEGGDQSEEEPRERSQAGGMGTLWSQESTPEERLPVEGSRPWAVARRVLTAILILGLLLCFSVLLFYNFQNCGPRPCETSVCLDLRDHYLASGNTSVAPCTDFFSFACGRAKETNNSFQELATKNKNRLRRILEVQNSWHPGSGEEKAFQFYNSCMDTLAIEAAGTGPLRQVIEELGGWRISGKWTSLNFNRTLRLLMSQYGHFPFFRAYLGPHPASPHTPVIQIDQPEFDVPLKQDQEQKIYAQIFREYLTYLNQLGTLLGGDPSKVQEHSSLSISITSRLFQFLRPLEQRRAQGKLFQMVTIDQLKEMAPAIDWLSCLQATFTPMSLSPSQSLVVHDVEYLKNMSQLVEEMLLKQRDFLQSHMILGLVVTLSPALDSQFQEARRKLSQKLRELTEQPPMPARPRWMKCVEETGTFFEPTLAALFVREAFGPSTRSAAMKLFTAIRDALITRLRNLPWMNEETQNMAQDKVAQLQVEMGASEWALKPELARQEYNDIQLGSSFLQSVLSCVRSLRARIVQSFLQPHPQHRWKVSPWDVNAYYSVSDHVVVFPAGLLQPPFFHPGYPRAVNFGAAGSIMAHELLHIFYQLLLPGGCLACDNHALQEAHLCLKRHYAAFPLPSRTSFNDSLTFLENAADVGGLAIALQAYSKRLLRHHGETVLPSLDLSPQQIFFRSYAQVMCRKPSPQDSHDTHSPPHLRVHGPLSSTPAFARYFRCARGALLNPSSRCQLW | 26.89 ± 0.16% | 27.1 ± 3.5% | 4.88 ± 0.16% | 6.43 ± 0.18% | – | – | – | –
3 | MEIPVPVQPSWLRRASAPLPGLSAPGRLFDQRFGEGLLEAELAALCPTTLAPYYLRAPSVALPVAQVPTDPGHFSVLLDVKHFSPEEIAVKVVGEHVEVHARHEERPDEHGFVAREFHRRYRLPPGVDPAAVTSALSPEGVLSIQAAPASAQAPPPAAAK | 27 ± 0.81% | 25.6 ± 1.1% | 4.93 ± 0.29% | 5.53 ± 0.95% | – | – | – | –
4 | MEIVWEVLFLLQANFIVCISAQQNSPKIHEGWWAYKEVVQGSFVPVPSFWGLVNSAWNLCSVGKRQSPVNIETSHMIFDPFLTPLRINTGGRKVSGTMYNTGRHVSLRLDKEHLVNISGGPMTYSHRLEEIRLHFGSEDSQGSEHLLNGQAFSGEVQLIHYNHELYTNVTEAAKSPNGLVVVSIFIKVSDSSNPFLNRMLNRDTITRITYKNDAYLLQGLNIEELYPETSSFITYDGSMTIPPCYETASWIIMNKPVYITRMQMHSLRLLSQNQPSQIFLSMSDNFRPVQPLNNRCIRTNINFSLQGKDCPNNRAQKLQYRVNEWLLK [Q9NS85] | 25.5 ± 2.5% | 27.9 ± 0.69% | 5.049 ± 0.027% | 8.51 ± 1.1% | – | – | – | –
5 | MEKILFYLFLIGIAVKAQICPKRCVCQILSPNLATLCAKKGLLFVPPNIDRRTVELRLADNFVTNIKRKDFANMTSLVDLTLSRNTISFITPHAFADLRNLRALHLNSNRLTKITNDMFSGLSNLHHLILNNNQLTLISSTAFDDVFALEELDLSYNNLETIPWDAVEKMVSLHTLSLDHNMIDNIPKGTFSHLHKMTRLDVTSNKLQKLPPDPLFQRAQVLATSGIISPSTFALSFGGNPLHCNCELLWLRRLSREDDLETCASPPLLTGRYFWSIPEEEFLCEPPLITRHTHEMRVLEGQRATLRCKARGDPEPAIHWISPEGKLISNATRSLVYDNGTLDILITTVKDTGAFTCIASNPAGEATQIVDLHIIKLPHLLNSTNHIHEPDPGSSDISTSTKSGSNTSSSNGDTKLSQDKIVVAEATSSTALLKFNFQRNIPGIRMFQIQYNGTYDDTLVYRMIPPTSKTFLVNNLAAGTMYDLCVLAIYDDGITSLTATRVVGCIQFTTEQDYVRCHFMQSQFLGGTMIIIIGGIIVASVLVFIIILMIRYKVCNNNGQHKVTKVSNVYSQTNGAQIQGCSVTLPQSVSKQAVGHEENAQCCKATSDNVIQSSETCSSQDSSTTTSALPPSWTSSTSVSQKQKRKTGTKPSTEPQNEAVTNVESQNTNRNNSTALQLASRPPDSVTEGPTSKRAHIKPNALLTNVDQIVQETQRLELI [G3V364] | – | – | – | – | 25.9 ± 2.7% | 27.1 ± 1.2% | 4.44 ± 0.44% | 6.29 ± 1.1%
6 | MEKILILLLVALSVAYAAPGPRGIIINLENGELCMNSAQCKSNCCQHSSALGLARCTSMASENSECSVKTLYGIYYKCPCERGLTCEGDKTIVGSITNTNFGICHDAGRSKQ | 23.9 ± 2.4% | 28.37 ± 0.035% | 5.19 ± 0.81% | 6.85 ± 1.2% | – | – | – | –
7 | MEKIPVSAFLLLVALSYTLARDTTVKPGAKKDTKDSRPKLPQTLSRGWGDQLIWTQTYEEALYKSKTSNKPLMIIHHLDECPHSQALKKVFAENKEIQKLAEQFVLLNLVYETTDKHLSPDGQYVPRIMFVDPSLTVRADITGRYSNRLYAYEPADTALLLDNMKKALKLLKTEL | 25.2 ± 1.5% | 25.7 ± 0.74% | 4.87 ± 0.93% | 7.88 ± 0.32% | – | – | – | –
